This note sets out measurements from patent US20070020687A1 (CYTOSKELETON, published 2007).

Sequences and labels used below:
B3: constitutively active recombinant Cdc42, glutamine 61 to leucine, histidine tagged (enzyme)
chain: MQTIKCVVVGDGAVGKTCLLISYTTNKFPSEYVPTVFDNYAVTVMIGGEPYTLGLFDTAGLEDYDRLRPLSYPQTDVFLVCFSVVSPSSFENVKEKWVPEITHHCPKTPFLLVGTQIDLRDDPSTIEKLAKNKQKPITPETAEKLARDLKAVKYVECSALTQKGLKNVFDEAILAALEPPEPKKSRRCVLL
notes: Bought protein; also called Cdc42 (61L); constitutively active Cdc42; not shown: histidine tag
B5: WASP effector-GBD peptide, histidine tagged, with engineered carboxy terminal cysteine (other, human)
chain: DIQNPDITSSRYRGLPAPGPSPADKKRSGKKKISKADIGAPSGFKHVSHVGWDPQNGFDVNNLDPDLRSLFSRAGISEAQLTDAETSKLIYDFIEDQGGLEAVRQEMRRQEPLPPPPPPSRC
notes: range 201-321; Linked covalently to maleimide plates; also called WASP-GBD; WASP-His; not shown: N-terminal histidine tag of vector pRSET-A

Assay [1] addresses T1, constitutively active recombinant Rac1, glutamine 61 to leucine, histidine tagged (Homo sapiens (Human), UniProt P63000 1-192). The assay is described as follows: Rac1 G-LISA on POSH plate with 2 minute Antigen Presenting Buffer (1% TCA), absorbance 490 nm.
Description: The reactions were incubated for 30 minutes at 4° C. on a microtiter titer plate shaker after which wells were washed once with 200 μl of PBST (PBS pH 7.2, 0.05% Tween-20) and immediately treated with 200 μl of Antigen Presenting Buffer (1% trichloroacetic acid (TCA)) for 2-5 minutes at room temperature. Wells were then washed three times with 200 μl each of PBST and primary Rac1 antibody was added at 1 μg/ml and incubated at room temperature for 45 minutes. Wells were washed three times with 200 μl each of PBST and incubated with anti-mouse secondary antibody for 45 minutes at room temperature. After three washes each of 200 μl PBST, the activated Rho proteins were detected using absorbance detection. Absorbance was measured at OD₄₉₀ in a spectrophotometer (SpectraMax 250, Molecular Devices) after addition of 50 μl of OPD substrate (Sigma Catalog # P9187) for 15 minutes at 37° C. followed by addition of 50 μl of stop buffer (1M sulfuric acid).
Referring to FIG. 5B, lysis buffer only (Blank) or 5 ng of Rac1 (61L) were subjected to Rac1 G-LISA assay as described in the materials and methods except that the assays were performed either with or without Antigen Presenting Buffer treatment (1% TCA or No APB respectively) Rac1 signal was detected by absorbance at 490 nm as described in the materials and methods.
Assay [2] concerns the target active Rac1, sample not stated (Homo sapiens (Human), UniProt P63000 1-189). The assay is described as follows: G-LISA with and without TCA Antigen Presenting Buffer.
For assay [3], the target named is T1, constitutively active recombinant Rac1, …. The assay is described as follows: Rac1 G-LISA, POSH-GBD on maleimide plate, detection with anti-Rac1 GL06, absorbance 490 nm. Here is the method: (§1) Active Rho protein (typically 7-15 μg total cell lysate or 1-5 ng of constitutively active recombinant protein) were either added directly to the effector bound G-LISA plate (Rac1 and Cdc42 G-LISAs) or diluted with an equal volume of Binding Buffer (20% PEG 8000, Sigma, St. Louis, Mo.) prior to adding to effector bound plates (RhoA G-LISA). The reactions were incubated for 30 minutes at 4° .C on a microtiter titer plate shaker after which wells were washed once with 200 μl of PBST (PBS pH 7.2, 0.05% Tween-20) and immediately treated with 200 μl of Antigen Presenting Buffer (1% trichloroacetic acid (TCA)) for 2-5 minutes at room temperature. […] For RhoA and Rac1 reactions goat anti-mouse secondary at 2 μg/ml is used, for RhoA,B,C reactions donkey anti-chicken secondary at 0.5 μg/ml is used, for Cdc42 reactions goat anti-sheep secondary antibody is used at 0.5 μg/ml. After three washes each of 200 μl PBST the activated Rho proteins are detected using absorbance or luminescence detection as described below.

The target of assay [4] is T2, endogenous Rac1 of human platelet extract loaded with GTPγS (human, UniProt P63000 1-189). Description: Rac1 G-LISA on POSH-GBD maleimide plate, GDP or GTPγS loaded platelet extract, absorbance 490 nm. Here is the method: as §1
In assay [5] the target is T3, constitutively active recombinant RhoA, glutamine 63 to leucine, histidine tagged (Homo sapiens (Human), UniProt P61586 1-193, limits assumed).
T3 construct: Bought protein; unable to hydrolyse GTP; also called RhoA (63L); R63; not shown: histidine tag
Description: G-LISA with rhotekin-Cys effector-GBD on plate, data not shown.

Assay [6] concerns the target B5. Description: G-LISA on maleimide plates (FIG. 2). As for the experimental part: as §1
(§2) Referring to FIG. 2C, lysis buffer only (Blank), 5 ng of Cdc42 (61L) or Rac1 (61L) were subjected to a Cdc42 G-LISA assay as detailed in materials and methods (Example 2), and Cdc42 signal was detected by absorbance at 490 nm as described in materials and methods (Example 2).

For assay [7], the target named is T2, endogenous Rac1 of human platelet …. The assay is described as follows: Rac1 G-LISA, PAK-GBD-GST on glutathione plate, loaded platelet extracts, absorbance 490 nm. Here is the method: For RhoA and Rac1 reactions goat anti-mouse secondary at 2 μg/ml is used, for RhoA,B,C reactions donkey anti-chicken secondary at 0.5 μg/ml is used, for Cdc42 reactions goat anti-sheep secondary antibody is used at 0.5 μg/ml. After three washes each of 200 μl PBST the activated Rho proteins are detected using absorbance or luminescence detection as described below.
(§3) Plates were incubated at room temperature for 1 hour. Plates were washed twice in PBS and blocked by addition of 0.1% BSA in PBS pH 7.2 for 1 hour at room temperature.

The target in assay [8] is T1, constitutively active recombinant Rac1, …. The assay is described as follows: Rac1 G-LISA, PAK-GBD-GST on glutathione plate, absorbance 490 nm. As for the experimental part: as §1, §3
Assay [9] shares this target. The assay is described as follows: competition in Rac1: POSH G-LISA, 5 ng Rac1 (61L), POSH-GBD maleimide plate, PAK-GBD-GST at 0 to 10 µM.
Assay [10] deals with B3. Description: Cdc42 G-LISA, WASP-GBD on maleimide plate, detection with anti-Cdc42 ACD02, absorbance 490 nm. As for the experimental part:
as §1, §2

The target in assay [11] is T4, endogenous RhoA of human platelet extract loaded with GTPγS (human, UniProt P61586 1-190).
T4 construct: also called active RhoA (GTPγS); GTPγS RhoA
Description: RhoA G-LISA on ROCK plate, loaded platelet extracts, treatment with 10% TCA for 2 minutes, detection with clone 384, luminescence.
Description: Platelet cell lysates loaded with GTPγS or GDP nucleotides (10 μg total cell lysate per assay) were diluted with an equal volume of Binding Buffer (20% PEG 8000, Sigma, St. Louis, Mo.) prior to adding to ROCK effector bound plates. The reactions were incubated for 30 minutes at 4° C. on a microtiter titer plate shaker after which wells were washed once with 200 μl of PBST (PBS pH 7.2, 0.05% Tween-20) and immediately treated with one of the following chemical/physical treatments: microwaving for 3 minutes in the presence of 200 μl PBS; microwaving for 3 minutes dry; microwaving for 3 minutes in the presence of 200 μl of 8M urea; 200 μl methanol for 2 minutes; 200 pl ethanol for 2 minutes; 200 μl of 0.5% SDS for 2 minutes, 200 μl of 10% trichloroacetic acid (TCA) for 2 minutes at room temperature. […] After three washes each of 200 μl PBST, the activated Rho proteins were detected using luminescence detection. Luminescence was measured in a SpectroFluor Plus (Techan Inc.) after addition of 50 μl of lumigen reagent (Lumigen Inc., Catalog # PSA-100).
After extract incubation, the plate was treated with MW+PBS, MW/Dry, MW/8 M urea, methanol, ethanol, 0.5% SDS, 10% TCA or no treatment followed by antibody incubation and luminescence detection. […]

Assay [12] has as its target T3, constitutively active recombinant RhoA, …. Description: RhoA G-LISA, ROCK1-GBD on maleimide plate, detection with anti-RhoA clone 384, luminometry. Here is the method: as §1, with “The” for “Active Rho protein (typically 7-15 μg total cell lysate or 1-5 ng of constitutively active recombinant protein) were either added directly to the effector bound G-LISA plate (Rac1 and Cdc42 G-LISAs) or diluted with an equal volume of Binding Buffer (20% PEG 8000, Sigma, St. Louis, Mo.) prior to adding to effector bound plates (RhoA G-LISA). The”

Assay [13] concerns the target active RhoA, sample not stated (Homo sapiens (Human), UniProt P61586 1-190, limits assumed). The assay is described as follows: G-LISA with and without TCA Antigen Presenting Buffer.
In assay [14] the target is T4, endogenous RhoA of human platelet …. The assay is described as follows: RhoA G-LISA on ROCK-GBD maleimide plate, 15 µg GDP or GTPγS loaded platelet extract, Binding Buffer, luminometry. Here is the method: as §1
Assay [15] concerns the target T1, constitutively active recombinant Rac1, …. The assay is described as follows: competition in Rac1: POSH G-LISA, 5 ng Rac1 (61L), POSH-GBD maleimide plate, ROCK-GST as negative control inhibitor.
Assay [16] has the same target. Description: competition in Rac1: POSH G-LISA, 5 ng Rac1 (61L), POSH-GBD maleimide plate, reference PAK-GBD-GST.

A value given as a limit tells only on which side of the number the result lay.

The term IC50 denotes the concentration that inhibits the measured activity by half.

T4 sequence (P61586 1-190 limits assumed): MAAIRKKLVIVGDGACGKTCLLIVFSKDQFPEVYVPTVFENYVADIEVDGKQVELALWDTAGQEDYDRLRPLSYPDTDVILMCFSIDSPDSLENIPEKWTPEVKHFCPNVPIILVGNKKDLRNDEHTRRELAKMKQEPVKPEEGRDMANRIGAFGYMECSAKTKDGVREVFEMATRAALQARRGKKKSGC
T3 sequence (P61586 whole entry Q63L): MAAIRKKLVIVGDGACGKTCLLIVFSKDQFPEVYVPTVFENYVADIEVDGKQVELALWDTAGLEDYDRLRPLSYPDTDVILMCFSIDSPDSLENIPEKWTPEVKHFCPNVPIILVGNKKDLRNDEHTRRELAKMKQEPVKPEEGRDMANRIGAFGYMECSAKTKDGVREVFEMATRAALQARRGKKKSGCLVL
active RhoA, sample not stated, sequence (P61586 1-190 limits assumed): as the sequence (P61586 1-190 limits assumed) above

B1: POSH effector-GBD peptide, histidine tagged (other)
chain: KHSDTKKNTKKRHSFTSLTMANKSSQASQNRHSMEISPPVLISSSNPTAAARISELSGLSCSAPSQVHISTTG
notes: range 291-363; Linked to maleimide plates through the naturally occurring cysteine at position 351; also called POSH-GBD; POSH-His; not shown: N-terminal histidine tag of vector pRSET-A
As for B1, the “signal fold above background” value in [1] was found to be 7 fold; in assay [3] it was 9 fold. Also, the “loss of signal in the absence of TCA” value in assay [2] is more than 80%. Moreover, the “fold signal of active (GTPγS) Rac1 over inactive (GDP) Rac1” value in [4] is 30 fold.

B2: rhotekin-Cys effector-GBD as tested in the G-LISA (other, mouse)
chain: ILEDLNMLYIRQMALSLEDTELQRKLDHEIRMRDGAEKLLAALSQREQALEATKSLLVSNSRILSYMGELQRRKEAQVLEKTGC
notes: range 7-89; also called modified effector-GBD; Rhotekin-Cys-no tag
Take B2: the “signal fold above background” value in [5] is 6 fold.
Consider B3, for which the binding result in [6] is “binds”.

B4: PAK-GBD-GST peptide (other)
chain: KEKERPEISLPSDFEHTIHVGFDAVTGEFTGMPEQWARLLQTSNITKSEQKKNPQAVLDVLEFYNSKKTSNSQKYMSFTDKSAEC
notes: range 68-151; also called PAK1-GST; PAK-GST; not shown: Glutathione S transferase tag of vector pGEX-4T with thrombin site, N-terminal
In the case of B4, in assay [7], the “fold signal of GTPγS (active) over GDP (inactive) loaded platelet extract” value came out at 8 fold. In [2], the “loss of signal in the absence of TCA” value is more than 80%. For the same molecule, in [8], the “signal fold above background (buffer only)” value stood at 8 fold. Besides, the IC50 in assay [9] was approximately 100 nM.
As to B5, the “signal fold above background” value in assay [10] came to 5 fold.

B6: ROCK1 effector-GBD peptide, histidine tagged, with engineered carboxy terminal cysteine (other, human)
chain: EAEQYFSTLYKTQVKELKEEIEEKNRENLKKIQELQNEKETLATQLDLAETKAESEQLARGLLEEQYFELTQESKKAASRNRQEITDKDHTVSRLEEANSMLTKDIEILRRENEELTEKMKKAEEEYKLEKEEEISNLKAAFEKNINTERTLKTQAVNKLAEIMNRKDFKIDRKKANTC
notes: range 847-1024; Linked covalently to maleimide plates through the C-terminal cysteine; also called ROCK1-GBD; ROCK-GBD; not shown: N-terminal histidine tag of vector pRSET-A
In the case of B6, in assay [11], the “fold signal of GTPγS RhoA over GDP RhoA” value is approximately 8 fold. Moreover, the “signal fold above background (buffer only)” value in [12] stood at 6 fold. Moreover, the “loss of signal in the absence of TCA” value in assay [13] was more than 80%. For the same molecule, in assay [14], the “fold signal of active (GTPγS) RhoA over inactive (GDP) RhoA” value was 7 fold.

B7: ROCK-GST peptide (other)
chain: EAEQYFSTLYKTQVKELKEEIEEKNRENLKKIQELQNEKETLATQLDLAETKAESEQLARGLLEEQYFELTQESKKAASRNRQEITDKDHTVSRLEEANSMLTKDIEILRRENEELTEKMKKAEEEYKLEKEEEISNLKAAFEKNINTERTLKTQAVNKLAEIMNRKDFKIDRKKANT
notes: domain: GBD; a GST fusion of ROCK is described nowhere else; also called ROCK-GBD; RhoA effector ROCK-GBD; not shown: Glutathione S transferase tag
On to B7, for which the half-maximal inhibitory concentration (IC50) in [15] is 8 µM. Moreover, the “fold IC50 against PAK” value in [16] was approximately 80 fold.
